According to publication PMC7554088:

Target: T1, Rev7, accessory subunit of S. cerevisiae DNA polymerase ζ (S. cerevisiae), P38927
T1 chain: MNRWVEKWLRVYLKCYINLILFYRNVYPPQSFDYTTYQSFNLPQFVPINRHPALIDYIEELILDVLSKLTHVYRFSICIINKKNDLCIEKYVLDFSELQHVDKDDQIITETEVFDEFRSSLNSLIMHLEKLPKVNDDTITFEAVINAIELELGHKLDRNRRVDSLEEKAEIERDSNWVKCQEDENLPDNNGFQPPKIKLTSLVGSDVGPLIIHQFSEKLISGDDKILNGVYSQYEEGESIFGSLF
Experiment: cryo-EM structure
Details: remark: other sources report otherwise

- stoichiometry N: 2
B1: Rev7, accessory subunit of S. cerevisiae DNA polymerase ζ, P38927 1-245 (natural protein)
chain: MNRWVEKWLRVYLKCYINLILFYRNVYPPQSFDYTTYQSFNLPQFVPINRHPALIDYIEELILDVLSKLTHVYRFSICIINKKNDLCIEKYVLDFSELQHVDKDDQIITETEVFDEFRSSLNSLIMHLEKLPKVNDDTITFEAVINAIELELGHKLDRNRRVDSLEEKAEIERDSNWVKCQEDENLPDNNGFQPPKIKLTSLVGSDVGPLIIHQFSEKLISGDDKILNGVYSQYEEGESIFGSLF
